Laboratory results published in patent publication US20090312247.

How the values were obtained:
[1] = test system: 5'-FLAG epitope-tagged sNRF^(806-900)
[2] = test system: FLAG-epitope tagged NPRA stably over-expressed in HEK293 cells (HEK-NPRA cells)
[3] = test system: full-length NPRA (SEQ ID NO: 2)
Sequence of full-length NPRA (SEQ ID NO: 2) (chain, as listed by the source): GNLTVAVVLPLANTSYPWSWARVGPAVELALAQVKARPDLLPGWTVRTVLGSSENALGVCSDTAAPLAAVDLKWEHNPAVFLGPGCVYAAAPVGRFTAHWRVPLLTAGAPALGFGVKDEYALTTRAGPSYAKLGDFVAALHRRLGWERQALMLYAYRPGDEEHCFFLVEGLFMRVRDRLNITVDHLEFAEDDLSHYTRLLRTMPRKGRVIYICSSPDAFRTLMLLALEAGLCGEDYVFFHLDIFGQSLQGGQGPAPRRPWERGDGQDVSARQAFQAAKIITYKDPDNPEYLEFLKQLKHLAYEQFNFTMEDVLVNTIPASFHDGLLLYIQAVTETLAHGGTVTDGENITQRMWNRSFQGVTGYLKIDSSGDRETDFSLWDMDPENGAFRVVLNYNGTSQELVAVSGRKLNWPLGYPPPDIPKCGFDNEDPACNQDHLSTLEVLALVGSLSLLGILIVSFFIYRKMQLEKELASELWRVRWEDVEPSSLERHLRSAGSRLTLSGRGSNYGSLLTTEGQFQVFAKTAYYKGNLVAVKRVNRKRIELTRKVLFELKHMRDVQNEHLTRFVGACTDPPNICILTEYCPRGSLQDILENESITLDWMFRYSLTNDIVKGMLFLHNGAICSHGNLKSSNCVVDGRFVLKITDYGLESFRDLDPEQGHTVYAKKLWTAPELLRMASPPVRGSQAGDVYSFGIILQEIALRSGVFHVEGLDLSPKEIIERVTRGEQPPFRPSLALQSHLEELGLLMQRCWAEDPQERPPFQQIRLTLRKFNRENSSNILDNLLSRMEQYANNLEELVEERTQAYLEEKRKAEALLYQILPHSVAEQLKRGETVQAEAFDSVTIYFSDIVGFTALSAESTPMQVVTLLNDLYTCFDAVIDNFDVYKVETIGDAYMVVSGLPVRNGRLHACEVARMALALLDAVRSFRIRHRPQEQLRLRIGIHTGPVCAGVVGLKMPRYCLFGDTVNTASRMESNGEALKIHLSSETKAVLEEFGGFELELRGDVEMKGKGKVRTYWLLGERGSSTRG

Sequence of 5'-FLAG epitope-tagged sNRF^(806-900) (chain, as listed by the source): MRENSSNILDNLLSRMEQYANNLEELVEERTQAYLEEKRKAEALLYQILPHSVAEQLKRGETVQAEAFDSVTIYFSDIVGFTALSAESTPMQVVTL

## cGMP-dependent protein kinase I (PKG), endogenous in neonatal rat cardiac fibroblasts
[1]
  ANP-induced NPRA phosphorylation in cardiac fibroblasts ([35S]ATPγS incorporation): both KT5823 or expressed sNRF^(806-900) protein reduced ANP-induced NPRA phosphorylation to control levels

## cGMP-dependent protein kinase I (PKG) in HEK-NPRA cells
[2]
  ANP-induced phosphorylation of a 137-kD protein ([35S]ATPγS, autoradiography): Robust phosphorylation of a 137-kD protein occurred in the NPRA-expressing cells, but not in control cells

## recombinant PKG
[3]
  phosphorylation ([35S]ATPγS incorporation, autoradiography of Cos7 membrane lysates): SDS page gels demonstrated a phosphorylated 137 kD protein that corresponded to full-length NPRA
